Patent EP0132021B1, “TGF polypeptides, antigenic oligopeptides derived therefrom and antibodies produced therefrom” (Todaro, George Joseph, priority 1983, dated 1985)

Columns and labels:
[1] = target: T1, tyrosine-specific protein kinase (Homo sapiens, UniProt P00533); assay: Stimulation of tyrosine-specific protein kinase (phosphorylation of synthetic angiotensinyl peptide substrate); type: biochemical
T1 construct: endogenous in cells; host or cells: human tumor cell membranes (said in the general description, not in the assay sentence)
Text: A consequence of TGF or EGF binding to the EGF membrane receptors is the stimulation of phosphorylation of tyrosine residues of synthetic peptides or endogenous substrates (Pike et al. (1982) J. Biol. Chem. 257, pp. 14628-14631).

[2] = target: T2, EGF receptor sites on A431 human carcinoma cells (Homo sapiens, UniProt P00533); assay: 125I-EGF radioreceptor (binding competition) assay on formalin-fixed A431 cells
T2 construct: Human epidermoid A431 cells have in excess of 10⁶ EGF receptors per cell; endogenous in cells; host or cells: A431 human epidermoid carcinoma cells (formalin-fixed in A1)
Method: Purified EGF was labeled with Na¹²⁵I by a modification of the chloramine-T method as described in DeLarco et al. (1978) Proc. Natl. Acad. Sci. USA 75, pp. 4001-4005. The ¹²⁵I-EGF binding assay was performed on subconfluent monolayers of formalin-fixed A431 human carcinoma cells as previously described (in DeLarco et al. (1980) J. of Biol. Chem. 255, pp. 3685-3690). The fixed cells were washed twice with 0.5 ml of binding buffer (Dulbecco's modified Eagle's medium containing 1 mg/ml of bovine serum albumin and 50 mM 2-[bis(2-hydroxyethyl)amino]ethanesulfonic acid, pH 6.8). Competitions were initiated by the addition of 0.2 ml of binding buffer containing 0.4 ng of ¹²⁵I-EGF with or without potential inhibitor. After incubation for 1 h at 22°C, the specifically bound ¹²⁵I-EGF was determined. The TGF content was expressed by its degree of inhibition of the binding of ¹²⁵I-EGF to the EGF receptor. One EGF-competing activity unit is defined as the amount of protein that inhibits the binding of ¹²⁵I-EGF to its receptor by 50%.
TGF was quantitated in a radioreceptor assay based on receptor crossreactivity with mouse submaxillary gland epidermal growth factor (mEGF). […]

NRK cells = assay: Soft agar transforming assay with fetal bovine serum and TGF-beta; type: cell-based, rat; details: in the absence of TGF-beta
Text: Synthetic rTGF prepared in accordance with this Example was compared with natural rTGF in three assays for biological properties of the putative transforming growth factor.

[3] = after oxidation and regeneration, prior to purification

tyrosine-specific protein kinase activity when compared to the natural rTGF-I [1, 3] | EGF-radioreceptor activity when compared to the natural rTGF-I [2, 3] | EC50 ([1]; read-out: half maximal activity, stimulation of phosphorylation of the synthetic angiotensinyl peptide substrate) [nM] | IC50 ([2]; A431 human carcinoma cells, read-out: concentration required for 50% inhibition of 125I-EGF binding) [nM] | Substance | transformation of NRK cells in culture (NRK cells)
40-50% | 40-50% |  |  | regenerated, crude rTGF-I: crude synthetic rTGF oxidized and regenerated by the mixed disulfide method, prior to any purification | 
 |  | 0.3 | 4.1 | synthetic rTGF: rat TGF made by stepwise solid-phase chemical synthesis, oxidized and purified to homogeneity | does not produce such an effect
